# B1: Tyrosine-protein phosphatase non-receptor type 22 (Homo sapiens), Q9Y2R2 (protein)
# chain: MDQREILQKFLDEAQSKKITKEEFANEFLKLKRQSTKYKADKTYPTTVAEKPKNIKKNRYKDILPYDYSRVELSLITSDEDSSYINANFIKGVYGPKAYIATQGPLSTTLLDFWRMIWEYSVLIIVMACMEYEMGKKKCERYWAEPGEMQLEFGPFSVSCEAEKRKSDYIIRTLKVKFNSETRTIYQFHYKNWPDHDVPSSIDPILELIWDVRCYQEDDSVPICIHCSAGCGRTGVICAIDYTWMLLKDGIIPENFSVFSLIREMRTQRPSLVQTQEQYELVYNAVLELFKRQMDVIRDKHSGTESQAKHCIPEKNHTLQADSYSPNLPKSTTKAAKMMNQQRTKMEIKESSSFDFRTSEISAKEELVLHPAKSSTSFDFLELNYSFDKNADTTMKWQTKAFPIVGEPLQKHQSLDLGSLLFEGCSNSKPVNAAGRYFNSKVPITRTKSTPFELIQQRETKEVDSKENFSYLESQPHDSCFVEMQAQKVMHVSSAELNYSLPYDSKHQIRNASNVKHHDSSALGVYSYIPLVENPYFSSWPPSGTSSKMSLDLPEKQDGTVFPSSLLPTSSTSLFSYYNSHDSLSLNSPTNISSLLNQESAVLATAPRIDDEIPPPLPVRTPESFIVVEEAGEFSPNVPKSLSSAVKVKIGTSLEWGGTSEPKKFDDSVILRPSKSVKLRSPKSELHQDRSSPPPPLPERTLESFFLADEDCMQAQSIETYSTSYPDTMENSTSSKQTLKTPGKSFTRSKSLKILRNMKKSICNSCPPNKPAESVQSNNSSSFLNFGFANRFSKPKGPRNPPPTWNI
# Columns and labels:
# [1] = substrate: O=C(O)c1ccccc1-c1c2ccc(=O)c([As]3SCCS3)c-2oc2c([As]3SCCS3)c(O)ccc12; assay: Activity at Lyp expressed in Escherichia coli using pNPP as a substrate […]
# [2] = substrate: O=C(O)c1ccccc1-c1c2ccc(=O)c([As]3SCCS3)c-2oc2c([As]3SCCS3)c(O)ccc12; assay: Activity at Lyp expressed in Escherichia coli using DADEpYLIPQQG as a substrate […]
protein,measurement,setting,value
B1,kcat,[1],0.49 s⁻¹
same,kcat,[2],3.84 s⁻¹
